Measurements published in paper PMC3566586 (Molecular Cell, 2010).
Numbering of substitutions follows the chain as printed. Where two headings read alike, the source gives them in different places.

Key:
[1] = biological target: T1, recombinant Flag-tagged Yox1p(151–274) (S. cerevisiae, UniProt P34161 151-274); experiment: pull-down
T1 sequence (looked up): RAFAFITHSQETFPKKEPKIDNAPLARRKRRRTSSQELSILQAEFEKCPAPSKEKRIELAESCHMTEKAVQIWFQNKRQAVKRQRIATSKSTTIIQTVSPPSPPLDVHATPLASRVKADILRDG

[2] = biological target: Mcm1p(1-98);Yox1p full length (Saccharomyces cerevisiae;Saccharomyces …, UniProt P11746;P34161 1-98;1-385, |); experiment: immobilized template pull-down
Sequence of Mcm1p(1-98);Yox1p full length (P34161 whole entry, one chain of several): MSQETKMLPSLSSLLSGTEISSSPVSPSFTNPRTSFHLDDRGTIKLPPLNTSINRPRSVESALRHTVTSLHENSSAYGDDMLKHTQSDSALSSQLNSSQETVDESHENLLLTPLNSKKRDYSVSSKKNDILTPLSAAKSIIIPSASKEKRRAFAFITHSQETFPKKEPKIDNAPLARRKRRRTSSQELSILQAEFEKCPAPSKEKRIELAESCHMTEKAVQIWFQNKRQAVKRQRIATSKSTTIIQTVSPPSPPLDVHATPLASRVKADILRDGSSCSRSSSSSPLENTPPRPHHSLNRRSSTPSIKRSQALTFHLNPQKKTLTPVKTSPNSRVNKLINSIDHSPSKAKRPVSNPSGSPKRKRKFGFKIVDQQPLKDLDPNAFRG

Fkh2p(325-458) = biological target: T2, Fkh2p(325-458) (Saccharomyces cerevisiae, UniProt P41813 325-458); experiment: EMSA
T2 sequence: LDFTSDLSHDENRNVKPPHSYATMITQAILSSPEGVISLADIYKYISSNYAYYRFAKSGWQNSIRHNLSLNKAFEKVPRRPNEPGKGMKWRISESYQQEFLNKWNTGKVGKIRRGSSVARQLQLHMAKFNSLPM

Mcm1p(1-98) [3] = biological target: T3, Mcm1p(1-98) (Saccharomyces cerevisiae, UniProt P11746 1-98); experiment: EMSA
[4] = biological target: Mcm1p(1-98);Yox1p(151-274) recombinant (Saccharomyces cerevisiae;Saccharomyces …, UniProt P11746;P34161 1-98;151-274, |); experiment: EMSA
Mcm1p(1-98);Fkh2p(1-458) [5] = biological target: T4, Mcm1p(1-98);Fkh2p(1-458) (Saccharomyces cerevisiae;Saccharomyces …, UniProt P11746;P41813 1-98;1-458, |); experiment: EMSA
Mcm1p(1-98);Yox1p(E196H) = Mcm1p(1-98);Yox1p(E196H) (Saccharomyces cerevisiae;Saccharomyces …, UniProt P11746;P34161 1-98;151-274, |E196H); experiment: EMSA
[6] = biological target: Mcm1p(1-96);Yox1p(151-274) recombinant (Saccharomyces cerevisiae;Saccharomyces …, UniProt P11746;P34161 1-96;151-274, |); experiment: competition
[7] = biological target: T5, Yox1p(176-274) recombinant (Saccharomyces cerevisiae, UniProt P34161 176-274); experiment: EMSA
T5 sequence: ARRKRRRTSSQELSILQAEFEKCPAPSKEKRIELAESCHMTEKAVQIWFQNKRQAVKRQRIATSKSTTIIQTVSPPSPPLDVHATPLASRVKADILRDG

[8] = biological target: Mcm1p(1-96);Yox1p(151-274) recombinant;Fkh2p(325-458) (Saccharomyces cerevisiae;Saccharomyces …, UniProt P11746;P34161;P41813 1-96;151-274;325-458, ||); experiment: EMSA
[9] = biological target: Mcm1p(1-98);Yox1p(151-274) (Saccharomyces cerevisiae;Saccharomyces …, UniProt P11746;P34161 1-98;151-274, |); experiment: EMSA
[10] = biological target: Mcm1p(1-98);Yox1p(N226Q) recombinant (Saccharomyces cerevisiae;Saccharomyces …, UniProt P11746;P34161 1-98;151-274, |N226Q); experiment: competition
[11] = biological target: Mcm1p(1-96);Fkh2p full length (Saccharomyces cerevisiae;Saccharomyces …, UniProt P11746;P41813 1-96;1-862, |); experiment: EMSA
Sequence of Mcm1p(1-96);Fkh2p full length (P41813 whole entry, one chain of several): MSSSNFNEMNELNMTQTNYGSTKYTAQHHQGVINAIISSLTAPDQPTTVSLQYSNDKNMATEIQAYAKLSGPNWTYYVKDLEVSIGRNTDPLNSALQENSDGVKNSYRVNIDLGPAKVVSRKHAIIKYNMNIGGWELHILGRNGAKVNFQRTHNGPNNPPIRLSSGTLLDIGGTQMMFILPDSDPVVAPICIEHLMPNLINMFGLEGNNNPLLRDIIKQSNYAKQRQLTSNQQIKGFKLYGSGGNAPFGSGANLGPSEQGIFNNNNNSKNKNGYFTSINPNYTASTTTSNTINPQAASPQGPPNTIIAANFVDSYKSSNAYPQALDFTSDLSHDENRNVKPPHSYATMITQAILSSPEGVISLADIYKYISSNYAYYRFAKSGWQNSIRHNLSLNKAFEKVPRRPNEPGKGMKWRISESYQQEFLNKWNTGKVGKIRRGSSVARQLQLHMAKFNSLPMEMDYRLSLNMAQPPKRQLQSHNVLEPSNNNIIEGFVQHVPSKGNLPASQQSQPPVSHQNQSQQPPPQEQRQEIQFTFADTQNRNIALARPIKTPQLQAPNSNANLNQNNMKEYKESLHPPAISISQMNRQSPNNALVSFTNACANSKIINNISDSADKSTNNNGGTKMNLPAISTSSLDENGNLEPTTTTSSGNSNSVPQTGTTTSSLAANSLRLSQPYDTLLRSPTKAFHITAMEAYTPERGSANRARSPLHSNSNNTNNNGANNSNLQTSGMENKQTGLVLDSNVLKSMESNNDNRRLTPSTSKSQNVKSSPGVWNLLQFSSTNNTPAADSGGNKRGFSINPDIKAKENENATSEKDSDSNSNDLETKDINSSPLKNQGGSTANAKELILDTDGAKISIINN

Yox1p F163 mutant = biological target: T6, Yox1p F163 mutant (Saccharomyces cerevisiae, UniProt P34161 151-274, F163A); experiment: EMSA
T6 sequence: T1 sequence (looked up) with F13A

Yox1p(F155A) = biological target: T7, Yox1p(F155A) (Saccharomyces cerevisiae, UniProt P34161 151-274, F155A); experiment: EMSA
T7 sequence: T1 sequence (looked up) with F5A

Yox1p(F153A) = biological target: T8, Yox1p(F153A) (Saccharomyces cerevisiae, UniProt P34161 151-274, F153A); experiment: EMSA
T8 sequence: T1 sequence (looked up) with F3A

[12] = biological target: T9, Yox1p(151-274) recombinant (Saccharomyces cerevisiae, UniProt P34161 151-274); experiment: EMSA
T9 sequence: T1 sequence (looked up)

Mcm1p(1-98) [13] = biological target: T3, Mcm1p(1-98); experiment: EMSA; remark: listed apart in the source
Mcm1p(1-98);Fkh2p(1-458) [14] = biological target: T4, Mcm1p(1-98);Fkh2p(1-458); experiment: EMSA; remark: listed apart in the source

Measured: binding result

B1: MBP-Mcm1p(1–96) (domain or fragment, S. cerevisiae, UniProt P11746 1-96, looked up)
chain: MSDIEEGTPTNNGQQKERRKIEIKFIENKTRRHVTFSKRKHGIMKKAFELSVLTGTQVLLLVVSETGLVYTFSTPKFEPIVTQQEGRNLIQACLNA
binds: [1]

B2: SPO12 WT biotin (dsDNA)
DNA 1: TCGAGGTTAATATCTTTTCCTAATTTGGAAATATGTAAACAGGGC
DNA 2: TCGAGCCCTGTTTACATATTTCCAAATTAGGAAAAGATATTAACC
binds: [2]

B3: SPO12 WT (dsDNA)
DNA 1: B2 DNA 1
DNA 2: B2 DNA 2
no binding: [10]
not listed: [1] | [2] | Mcm1p(1-98) [13] | Mcm1p(1-98);Fkh2p(1-458) [14]
binds: all other assays above

B4: SPO12 mut (Yox1p site) (dsDNA)
DNA 1: B2 DNA 1 with A10G, T11G
DNA 2: B2 DNA 2 with A39C, T40C
binds: Mcm1p(1-98) [13] | Mcm1p(1-98);Fkh2p(1-458) [14]
